This experiment has as its target IpaB (invasion plasmid antigen B), C-terminal his6-tag, produced in CFPS (S. flexneri 2a). Kind of experiment: SEC-MALS; Superdex200 10/30 Increase, 50 mM Tris pH 8, 150 mM NaCl, 0.1% (v/v) LDAO, 0.5 mL/min, column 25 °C, about 50-100 μg injected. Background: In gel filtration, larger molecules generally elute earlier.

This is an account of results in publication PMC8688910.

In general, stoichiometry N refers to a count of units in the complex or per binding partner. Consider “IpaB (invasion plasmid antigen B), C-terminal his6-tag, produced in CFPS (natural protein)”, for which the stoichiometry N amounted to 2.
